Test results: paper PMC3553997 (Nucleic Acids Research, 2012)

Tests used:
TreR (TM0393) = target: T1, TreR (TM0393) (Thermotoga maritima, UniProt Q9WYM4); test: EMSA, loss of operator DNA binding; details: 50 nM protein, TM0392/treT operator DNA; pH 8.0, 150 mM KCl, 5 mM MgCl2, 60°C
T1 sequence (Q9WYM4 1-371): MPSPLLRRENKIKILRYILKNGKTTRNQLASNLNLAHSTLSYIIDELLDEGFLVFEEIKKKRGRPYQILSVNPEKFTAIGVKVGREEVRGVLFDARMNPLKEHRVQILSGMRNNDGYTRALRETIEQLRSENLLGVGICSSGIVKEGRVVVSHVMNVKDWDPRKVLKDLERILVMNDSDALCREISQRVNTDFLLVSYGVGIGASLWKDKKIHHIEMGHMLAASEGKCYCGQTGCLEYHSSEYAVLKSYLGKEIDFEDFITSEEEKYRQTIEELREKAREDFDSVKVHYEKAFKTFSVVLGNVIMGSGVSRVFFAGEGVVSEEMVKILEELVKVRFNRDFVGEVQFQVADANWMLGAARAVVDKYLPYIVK

ManR = target: T2, ManR (Thermotoga maritima, UniProt Q9X0V1 1-368); test: EMSA
T2 sequence: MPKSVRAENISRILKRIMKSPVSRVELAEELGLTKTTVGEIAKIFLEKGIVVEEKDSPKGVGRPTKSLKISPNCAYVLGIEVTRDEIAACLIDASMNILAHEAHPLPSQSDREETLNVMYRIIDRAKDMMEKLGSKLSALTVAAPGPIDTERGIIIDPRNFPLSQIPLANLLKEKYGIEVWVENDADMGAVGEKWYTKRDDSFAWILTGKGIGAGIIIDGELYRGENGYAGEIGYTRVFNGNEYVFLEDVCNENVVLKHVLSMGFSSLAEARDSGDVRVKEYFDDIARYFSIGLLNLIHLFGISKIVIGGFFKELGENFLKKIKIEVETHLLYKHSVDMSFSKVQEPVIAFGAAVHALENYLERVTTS

XylR = target: T3, XylR (Thermotoga maritima MSB8, UniProt Q9WXW5 1-378); test: EMSA
T3 sequence: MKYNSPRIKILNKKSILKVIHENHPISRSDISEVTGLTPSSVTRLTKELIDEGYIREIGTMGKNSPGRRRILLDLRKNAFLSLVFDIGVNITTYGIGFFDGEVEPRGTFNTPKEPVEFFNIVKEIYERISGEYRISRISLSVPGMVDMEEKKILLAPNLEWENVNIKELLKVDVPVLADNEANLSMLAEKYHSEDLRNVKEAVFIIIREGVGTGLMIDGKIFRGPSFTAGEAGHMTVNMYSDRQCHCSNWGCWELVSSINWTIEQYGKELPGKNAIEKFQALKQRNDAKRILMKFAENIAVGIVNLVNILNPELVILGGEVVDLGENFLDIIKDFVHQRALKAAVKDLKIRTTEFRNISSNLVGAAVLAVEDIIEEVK

ChiR = target: T4, ChiR (Thermotoga maritima, UniProt Q9WZR5 1-355); test: EMSA
T4 sequence: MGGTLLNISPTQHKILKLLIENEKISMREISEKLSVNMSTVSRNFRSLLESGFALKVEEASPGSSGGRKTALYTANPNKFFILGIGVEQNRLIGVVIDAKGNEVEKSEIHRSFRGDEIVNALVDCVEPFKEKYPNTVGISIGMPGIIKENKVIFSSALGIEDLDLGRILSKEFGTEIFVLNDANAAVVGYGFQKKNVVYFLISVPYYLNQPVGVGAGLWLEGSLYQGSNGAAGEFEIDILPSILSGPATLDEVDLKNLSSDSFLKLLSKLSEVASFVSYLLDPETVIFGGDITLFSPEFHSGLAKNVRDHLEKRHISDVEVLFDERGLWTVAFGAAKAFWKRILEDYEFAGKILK

IolR = target: T5, IolR (Thermotoga maritima MSB8, UniProt Q9WYP2 1-383); test: EMSA
T5 sequence: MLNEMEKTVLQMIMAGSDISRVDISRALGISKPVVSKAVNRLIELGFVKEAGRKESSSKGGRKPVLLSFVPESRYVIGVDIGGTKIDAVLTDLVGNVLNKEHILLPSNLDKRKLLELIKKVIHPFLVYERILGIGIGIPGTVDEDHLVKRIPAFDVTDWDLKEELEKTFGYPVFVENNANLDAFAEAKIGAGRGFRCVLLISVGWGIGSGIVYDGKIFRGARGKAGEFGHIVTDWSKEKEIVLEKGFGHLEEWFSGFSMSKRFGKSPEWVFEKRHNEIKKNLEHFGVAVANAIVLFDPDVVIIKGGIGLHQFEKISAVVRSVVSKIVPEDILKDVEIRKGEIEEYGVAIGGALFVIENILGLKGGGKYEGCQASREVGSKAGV

BglR = target: T6, BglR (Thermotoga maritima MSB8, UniProt Q9WXN9 1-381); test: EMSA
T6 sequence: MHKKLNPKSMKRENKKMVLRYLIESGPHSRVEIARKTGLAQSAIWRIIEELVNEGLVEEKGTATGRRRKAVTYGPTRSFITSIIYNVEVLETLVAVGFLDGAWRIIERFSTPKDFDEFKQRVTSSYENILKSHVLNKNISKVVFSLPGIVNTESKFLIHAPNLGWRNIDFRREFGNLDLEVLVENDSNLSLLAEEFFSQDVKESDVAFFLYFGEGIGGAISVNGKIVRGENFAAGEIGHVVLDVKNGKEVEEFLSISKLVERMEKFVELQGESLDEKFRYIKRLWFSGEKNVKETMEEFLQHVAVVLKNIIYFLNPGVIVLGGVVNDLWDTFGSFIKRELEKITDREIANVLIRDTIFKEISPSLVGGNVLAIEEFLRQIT

TreR = target: T7, TreR (Thermotoga maritima, UniProt Q9WYM4 1-371); test: EMSA
T7 sequence: T1 sequence (Q9WYM4 1-371)

For `OC[C@H]1O[C@H](O[C@H]2O[C@H](CO)[C@@H](O)[C@H](O)[C@H]2O)[C@H](O)[C@@H](O)[C@@H]1O` [Trehalose], the “Tested potential ligands / (Sugar)” value (TreR (TM0393)) was 0.2 mM.

B1: mtpE site (dsDNA)
DNA 1: TAACATAATCTTTTTATTAGTAAGTGTTATTTATTAACATCCATTTAAA
DNA 2: TTTAAATGGATGTTAATAAATAACACTTACTAATAAAAAGATTATGTTA
Work on B1 yielded a binding signal (ManR) of 25 nM.

B2: xynA site (dsDNA)
DNA 1: TCGAAGAAGCTCAATTTTTTCTTTACAAAAAATAACTTTAGGGTGATAT
DNA 2: ATATCACCCTAAAGTTATTTTTTGTAAAGAAAAAATTGAGCTTCTTCGA
In the case of B2, the binding signal (XylR) is reported as 2.5 nM.

B3: xylA site (dsDNA)
DNA 1: CCCAAGATTTTATATAATTGATTGATAGAAAAAATTTAGGGAGGTGTTT
DNA 2: AAACACCTCCCTAAATTTTTTCTATCAATCAATTATATAAAATCTTGGG
B3 gave a binding signal (XylR) of 5 nM.

B4: chiR site (dsDNA)
DNA 1: ACAATAATTTATGAAGTTGTTTGCGGCATGCAACTAACTGATGGGAGGG
DNA 2: CCCTCCCATCAGTTAGTTGCATGCCGCAAACAACTTCATAAATTATTGT
Molecule B4 has a binding signal (ChiR) of 0.5 nM.

B5: xloE site (dsDNA)
DNA 1: AGATTTACATTAAAATATTTCCCGAAAGGAAAAAATATAACATACAATC
DNA 2: GATTGTATGTTATATTTTTTCCTTTCGGGAAATATTTTAATGTAAATCT
With B5 the binding signal (XylR) was 5 nM.

B6: iolR site (dsDNA)
DNA 1: TAGTTGACAAATTGATTATAATGTGGTTGGTTAGTTAACGATAACAAACGAAAGGAATGGAAAAATGCTGAAT
DNA 2: ATTCAGCATTTTTCCATTCCTTTCGTTTGTTATCGTTAACTAACCAACCACATTATAATCAATTTGTCAACTA
With B6 the binding signal (IolR) was 2.5 nM.

B7: bglR site (dsDNA)
DNA 1: GAGTCATATCGTTATAATTTCTTTCTGAGGAAGATAGATAAGAAGCAGG
DNA 2: CCTGCTTCTTATCTATCTTCCTCAGAAAGAAATTATAACGATATGACTC
Work on B7 yielded a binding signal (BglR) of 2.5 nM.

B8: treT site (dsDNA)
DNA 1: TGATTAATTGTGTATTAATTCAAGTTACGAATAAATTTGGGAGGGATCA
DNA 2: TGATCCCTCCCAAATTTATTCGTAACTTGAATTAATACACAATTAATCA
In the case of B8, the binding signal (TreR) is reported as 10 nM.

B9: manB site (dsDNA)
DNA 1: CGATGACCCTGATAAATAAGTAAAGTTTACTAATTAACGGGAGGTATCG
DNA 2: CGATACCTCCCGTTAATTAGTAAACTTTACTTATTTATCAGGGTCATCG
Work on B9 yielded a binding signal (ManR) of 10 nM.

B10: xylR site (dsDNA)
DNA 1: ACCTTGATTTTAAATTATTTCCTGCATATAATTAATGTGAACATAATAT
DNA 2: ATATTATGTTCACATTAATTATATGCAGGAAATAATTTAAAATCAAGGT
B10 showed a binding signal (XylR) of 2.5 nM.
